Assay results from patent EP4786492A1.
Blank lines part the entries; values can stand above or below the binder they belong to.

How the values were obtained:
[1] = target: human DLL3 protein expressed on CHO-K1 recombinant cells (human DLL3 extracellular segment fused to EpCAM transmembrane and intracellular regions) (human) (UniProt Q9NYJ7); assay: FACS, CHO-K1 hDLL3 cells, 0.8 nM antibody
[2] = target: human DLL3 protein expressed on CHO-K1 recombinant cells (human DLL3 extracellular segment fused to EpCAM transmembrane and intracellular regions) (human) (UniProt Q9NYJ7); assay: FACS, CHO-K1 hDLL3 cells, 100 nM antibody
[3] = target: mouse DLL3 on CHO-K1-mDLL3 cells (mouse) (UniProt O88516); assay: FACS, CHO-K1-mDLL3 cells, 20 nM antibody
[4] = target: mouse DLL3 on CHO-K1-mDLL3 cells (mouse) (UniProt O88516); assay: FACS, CHO-K1-mDLL3 cells, 0.8 nM antibody
[5] = target: monkey DLL3 on CHO-K1-cyno DLL3 cells (cynomolgus monkey); assay: FACS, CHO-K1-cyno DLL3 cells, 0.032 nM antibody
[6] = target: monkey DLL3 on CHO-K1-cyno DLL3 cells (cynomolgus monkey); assay: FACS, CHO-K1-cyno DLL3 cells, 4 nM antibody
[7] = target: human DLL3 protein expressed on CHO-K1 recombinant cells (human DLL3 extracellular segment fused to EpCAM transmembrane and intracellular regions) (human) (UniProt Q9NYJ7); assay: FACS, CHO-K1 hDLL3 cells, 20 nM antibody
[8] = target: mouse DLL3 on CHO-K1-mDLL3 cells (mouse) (UniProt O88516); assay: FACS, CHO-K1-mDLL3 cells, 100 nM antibody
[9] = target: DLL3 endogenously expressed on NCI-H82 cells (UniProt Q9NYJ7); assay: FACS on NCI-H82 cells; antibody 4 nM
[10] = target: mouse DLL3 on CHO-K1-mDLL3 cells (mouse) (UniProt O88516); assay: FACS, CHO-K1-mDLL3 cells, 0.16 nM antibody
[11] = target: human DLL4 protein (Acro, Cat. No. DL4-H5227) (human) (UniProt Q9NR61); assay: ELISA, coated hDLL4; maximum over 0.1, 1, 10, 100 nM antibody
[12] = target: DLL3 endogenously expressed on NCI-H82 cells (UniProt Q9NYJ7); assay: FACS on NCI-H82 cells; antibody 0.16 nM
[13] = target: monkey DLL3 on CHO-K1-cyno DLL3 cells (cynomolgus monkey); assay: FACS, CHO-K1-cyno DLL3 cells, 0.16 nM antibody
[14] = target: DLL3 endogenously expressed on NCI-H82 cells (UniProt Q9NYJ7); assay: FACS on NCI-H82 cells; antibody 0.032 nM
[15] = target: human delta-like ligand 3 (DLL3) on SHP77 cells (human) (UniProt Q9NYJ7); assay: FACS on SHP77 cells
[16] = target: mouse DLL3 on CHO-K1-mDLL3 cells (mouse) (UniProt O88516); assay: FACS, CHO-K1-mDLL3 cells, 4 nM antibody
[17] = target: mouse DLL3 on CHO-K1-mDLL3 cells (mouse) (UniProt O88516); assay: FACS, CHO-K1-mDLL3 cells, 0.00128 nM antibody
[18] = target: monkey DLL3 on CHO-K1-cyno DLL3 cells (cynomolgus monkey); assay: FACS, CHO-K1-cyno DLL3 cells, 0.0064 nM antibody
[19] = target: mouse DLL3 on CHO-K1-mDLL3 cells (mouse) (UniProt O88516); assay: FACS, CHO-K1-mDLL3 cells, 0.0064 nM antibody
[20] = target: mouse DLL3 on CHO-K1-mDLL3 cells (mouse) (UniProt O88516); assay: FACS, CHO-K1-mDLL3 cells, 0.032 nM antibody
[21] = target: DLL3 endogenously expressed on NCI-H82 cells (UniProt Q9NYJ7); assay: FACS on NCI-H82 cells; antibody 20 nM
[22] = target: monkey DLL3 on CHO-K1-cyno DLL3 cells (cynomolgus monkey); assay: FACS, CHO-K1-cyno DLL3 cells, 20 nM antibody
[23] = target: human DLL3 protein expressed on CHO-K1 recombinant cells (human DLL3 extracellular segment fused to EpCAM transmembrane and intracellular regions) (human) (UniProt Q9NYJ7); assay: FACS, CHO-K1 hDLL3 cells, 0.16 nM antibody
[24] = target: DLL3 endogenously expressed on NCI-H82 cells (UniProt Q9NYJ7); assay: FACS on NCI-H82 cells; antibody 0.0064 nM
[25] = target: DLL3 endogenously expressed on NCI-H82 cells (UniProt Q9NYJ7); assay: FACS on NCI-H82 cells; antibody 100 nM
[26] = target: human DLL3 protein expressed on CHO-K1 recombinant cells (human DLL3 extracellular segment fused to EpCAM transmembrane and intracellular regions) (human) (UniProt Q9NYJ7); assay: FACS, CHO-K1 hDLL3 cells, 0.0064 nM antibody
[27] = target: monkey DLL3 on CHO-K1-cyno DLL3 cells (cynomolgus monkey); assay: FACS, CHO-K1-cyno DLL3 cells, 100 nM antibody
[28] = target: monkey DLL3 on CHO-K1-cyno DLL3 cells (cynomolgus monkey); assay: FACS, CHO-K1-cyno DLL3 cells, 0.00128 nM antibody
[29] = target: monkey DLL3 on CHO-K1-cyno DLL3 cells (cynomolgus monkey); assay: FACS, CHO-K1-cyno DLL3 cells, 0.8 nM antibody
[30] = target: human DLL3 protein expressed on CHO-K1 recombinant cells (human DLL3 extracellular segment fused to EpCAM transmembrane and intracellular regions) (human) (UniProt Q9NYJ7); assay: FACS, CHO-K1 hDLL3 cells, 0.00128 nM antibody
[31] = target: human DLL1 protein (Acro, Cat. No. DL1-H52H8) (human) (UniProt O00548); assay: ELISA, coated hDLL1; maximum over 0.1, 1, 10, 100 nM antibody
[32] = target: human DLL3 protein (extracellular segment, His tag) (human) (UniProt Q9NYJ7); assay: SPR (Biacore 8K), antibody captured on Protein A chip, DLL3 antigen in solution, 1:1 Langmuir fit
[33] = target: DLL3 endogenously expressed on NCI-H82 cells (UniProt Q9NYJ7); assay: FACS on NCI-H82 cells; antibody 0.00128 nM
[34] = target: human DLL3 protein expressed on CHO-K1 recombinant cells (human DLL3 extracellular segment fused to EpCAM transmembrane and intracellular regions) (human) (UniProt Q9NYJ7); assay: FACS, CHO-K1 hDLL3 cells, 0.032 nM antibody
[35] = target: human DLL3 protein expressed on CHO-K1 recombinant cells (human DLL3 extracellular segment fused to EpCAM transmembrane and intracellular regions) (human) (UniProt Q9NYJ7); assay: FACS, CHO-K1 hDLL3 cells, 4 nM antibody
[36] = target: DLL3 endogenously expressed on NCI-H82 cells (UniProt Q9NYJ7); assay: FACS on NCI-H82 cells; antibody 0.8 nM

Chain of human delta-like ligand 3 (DLL3) on SHP77 cells (human) (Q9NYJ7 27-618, stated change not applied): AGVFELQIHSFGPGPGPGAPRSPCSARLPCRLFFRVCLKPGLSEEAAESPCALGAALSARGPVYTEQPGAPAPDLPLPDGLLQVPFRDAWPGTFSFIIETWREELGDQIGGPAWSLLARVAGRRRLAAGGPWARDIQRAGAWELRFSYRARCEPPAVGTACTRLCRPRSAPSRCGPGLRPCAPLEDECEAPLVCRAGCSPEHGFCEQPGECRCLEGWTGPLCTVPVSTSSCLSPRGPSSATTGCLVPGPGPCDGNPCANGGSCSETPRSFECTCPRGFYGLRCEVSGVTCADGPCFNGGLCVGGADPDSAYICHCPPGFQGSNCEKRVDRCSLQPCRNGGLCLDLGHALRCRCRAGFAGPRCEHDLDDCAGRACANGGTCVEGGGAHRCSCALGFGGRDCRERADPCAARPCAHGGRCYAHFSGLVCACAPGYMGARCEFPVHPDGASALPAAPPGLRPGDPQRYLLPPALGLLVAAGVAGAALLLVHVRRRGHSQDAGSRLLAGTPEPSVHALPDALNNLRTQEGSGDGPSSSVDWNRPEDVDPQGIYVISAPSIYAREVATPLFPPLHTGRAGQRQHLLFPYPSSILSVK
Chain of DLL3 endogenously expressed on NCI-H82 cells (Q9NYJ7 27-618): as the sequence (Q9NYJ7 27-618, stated change not applied) above
Chain of human DLL3 protein expressed on CHO-K1 recombinant cells (human DLL3 extracellular segment fused to EpCAM transmembrane and intracellular regions) (human) (Q9NYJ7 other isoform, or with tags, fused parts or gaps limits assumed): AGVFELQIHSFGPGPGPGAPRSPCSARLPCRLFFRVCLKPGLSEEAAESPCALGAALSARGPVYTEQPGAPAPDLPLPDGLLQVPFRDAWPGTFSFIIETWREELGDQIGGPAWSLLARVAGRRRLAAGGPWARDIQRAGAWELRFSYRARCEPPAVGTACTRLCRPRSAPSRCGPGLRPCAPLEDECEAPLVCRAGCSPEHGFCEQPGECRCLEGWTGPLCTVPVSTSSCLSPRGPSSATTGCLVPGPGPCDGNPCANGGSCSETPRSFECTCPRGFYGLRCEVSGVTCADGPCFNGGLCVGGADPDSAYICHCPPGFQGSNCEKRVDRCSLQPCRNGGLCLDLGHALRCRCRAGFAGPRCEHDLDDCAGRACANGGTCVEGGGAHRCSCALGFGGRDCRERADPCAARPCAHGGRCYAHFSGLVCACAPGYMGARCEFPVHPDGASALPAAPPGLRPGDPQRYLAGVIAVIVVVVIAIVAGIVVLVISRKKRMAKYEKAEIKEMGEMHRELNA
Chain of monkey DLL3 on CHO-K1-cyno DLL3 cells (cynomolgus monkey) (chain, as listed by the source limits assumed): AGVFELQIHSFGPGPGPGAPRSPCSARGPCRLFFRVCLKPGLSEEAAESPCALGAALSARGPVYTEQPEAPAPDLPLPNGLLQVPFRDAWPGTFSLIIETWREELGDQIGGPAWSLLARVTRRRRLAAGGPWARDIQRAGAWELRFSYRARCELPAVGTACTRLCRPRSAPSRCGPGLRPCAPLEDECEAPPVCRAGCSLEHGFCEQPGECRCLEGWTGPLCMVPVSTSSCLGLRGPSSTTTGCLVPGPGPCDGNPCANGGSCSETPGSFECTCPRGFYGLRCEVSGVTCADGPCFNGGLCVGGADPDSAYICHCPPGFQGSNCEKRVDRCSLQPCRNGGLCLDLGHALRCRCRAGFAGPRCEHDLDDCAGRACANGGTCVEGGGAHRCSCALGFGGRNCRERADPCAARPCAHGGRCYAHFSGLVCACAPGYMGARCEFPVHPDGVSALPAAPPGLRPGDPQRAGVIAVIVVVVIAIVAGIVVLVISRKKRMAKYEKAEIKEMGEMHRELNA
Chain of mouse DLL3 on CHO-K1-mDLL3 cells (mouse) (O88516 other isoform, or with tags, fused parts or gaps limits assumed): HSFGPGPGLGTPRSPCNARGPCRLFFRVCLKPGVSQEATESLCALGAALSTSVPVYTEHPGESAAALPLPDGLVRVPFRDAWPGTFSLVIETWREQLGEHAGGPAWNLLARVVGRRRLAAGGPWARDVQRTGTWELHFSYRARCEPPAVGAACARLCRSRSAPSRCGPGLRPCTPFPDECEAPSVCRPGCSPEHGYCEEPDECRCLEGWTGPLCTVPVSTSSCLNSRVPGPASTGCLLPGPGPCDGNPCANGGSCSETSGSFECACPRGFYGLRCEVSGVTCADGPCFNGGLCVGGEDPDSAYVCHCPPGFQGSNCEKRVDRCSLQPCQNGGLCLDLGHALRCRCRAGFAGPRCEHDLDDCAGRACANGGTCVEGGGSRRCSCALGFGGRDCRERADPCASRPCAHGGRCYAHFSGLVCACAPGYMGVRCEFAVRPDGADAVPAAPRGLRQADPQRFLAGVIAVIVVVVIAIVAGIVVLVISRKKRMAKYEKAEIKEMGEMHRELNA
Chain of human DLL3 protein (extracellular segment, His tag) (human) (Q9NYJ7 27-492): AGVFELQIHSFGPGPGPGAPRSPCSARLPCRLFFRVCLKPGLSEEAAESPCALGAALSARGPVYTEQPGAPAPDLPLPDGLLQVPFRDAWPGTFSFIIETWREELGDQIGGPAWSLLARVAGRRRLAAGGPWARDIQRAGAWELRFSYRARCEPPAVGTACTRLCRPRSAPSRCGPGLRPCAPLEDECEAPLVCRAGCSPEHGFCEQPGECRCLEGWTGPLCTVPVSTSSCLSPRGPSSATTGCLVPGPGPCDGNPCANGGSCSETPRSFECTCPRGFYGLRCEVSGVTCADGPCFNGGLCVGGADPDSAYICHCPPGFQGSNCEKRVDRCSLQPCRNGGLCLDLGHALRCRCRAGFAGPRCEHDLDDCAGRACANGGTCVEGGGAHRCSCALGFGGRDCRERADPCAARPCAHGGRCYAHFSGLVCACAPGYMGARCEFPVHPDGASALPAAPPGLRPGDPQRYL
Chain of human DLL4 protein (Acro, Cat. No. DL4-H5227) (human) (Q9NR61 27-524 limits assumed): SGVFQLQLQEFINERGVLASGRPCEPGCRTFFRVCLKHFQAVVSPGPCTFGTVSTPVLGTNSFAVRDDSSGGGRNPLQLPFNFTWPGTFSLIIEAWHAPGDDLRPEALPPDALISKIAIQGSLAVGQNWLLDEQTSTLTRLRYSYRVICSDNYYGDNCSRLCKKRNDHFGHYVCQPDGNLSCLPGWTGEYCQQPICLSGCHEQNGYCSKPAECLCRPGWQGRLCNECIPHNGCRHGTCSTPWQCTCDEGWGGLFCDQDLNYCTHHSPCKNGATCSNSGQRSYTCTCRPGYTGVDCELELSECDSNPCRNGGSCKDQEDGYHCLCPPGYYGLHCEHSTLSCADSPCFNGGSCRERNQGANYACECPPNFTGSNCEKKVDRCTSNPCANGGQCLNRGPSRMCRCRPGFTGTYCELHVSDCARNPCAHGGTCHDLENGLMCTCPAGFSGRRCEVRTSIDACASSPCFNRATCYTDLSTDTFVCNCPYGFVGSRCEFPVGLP
Chain of human DLL1 protein (Acro, Cat. No. DL1-H52H8) (human) (O00548 18-540 limits assumed): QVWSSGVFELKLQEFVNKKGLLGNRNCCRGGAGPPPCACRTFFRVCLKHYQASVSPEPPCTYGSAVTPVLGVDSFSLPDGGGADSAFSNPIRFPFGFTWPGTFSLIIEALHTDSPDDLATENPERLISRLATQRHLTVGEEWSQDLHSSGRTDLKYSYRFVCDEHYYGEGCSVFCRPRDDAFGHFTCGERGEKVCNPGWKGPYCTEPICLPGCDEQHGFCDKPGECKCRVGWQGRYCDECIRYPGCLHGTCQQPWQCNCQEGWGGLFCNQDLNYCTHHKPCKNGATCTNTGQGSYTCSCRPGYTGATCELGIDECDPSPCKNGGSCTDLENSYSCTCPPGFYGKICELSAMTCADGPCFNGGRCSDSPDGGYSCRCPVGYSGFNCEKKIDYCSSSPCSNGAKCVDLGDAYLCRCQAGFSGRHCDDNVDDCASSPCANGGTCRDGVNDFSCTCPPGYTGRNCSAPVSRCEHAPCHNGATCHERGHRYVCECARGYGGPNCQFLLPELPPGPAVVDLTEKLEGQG

MFI [1]: 7320 MFI
MFI [2]: 16500 MFI
MFI [3]: 332 MFI
MFI [4]: 253 MFI
MFI [5]: 565 MFI
MFI [6]: 27700 MFI
MFI [7]: 15700 MFI
MFI [8]: 382 MFI
MFI [9]: 596
MFI [10]: 192 MFI
Emax of OD450 nm binding value [11]: 0.1 OD450 nm
MFI [12]: 356
MFI [13]: 1730 MFI
MFI [14]: 178
MFI at 0.00128 nM [15]: 91 MFI
MFI at 0.0064 nM [15]: 96 MFI
MFI at 0.032 nM [15]: 112 MFI
MFI at 0.16 nM [15]: 179 MFI
MFI at 0.8 nM [15]: 348 MFI
MFI at 4 nM [15]: 567 MFI
MFI at 20 nM [15]: 770 MFI
MFI at 100 nM [15]: 1120 MFI
MFI [16]: 296 MFI
MFI [17]: 103 MFI
MFI [18]: 245 MFI
MFI [19]: 110 MFI
MFI [20]: 137 MFI
MFI [21]: 732
MFI [22]: 32500 MFI
MFI [23]: 2060 MFI
MFI [24]: 125
MFI [25]: 1030
MFI [26]: 299 MFI
MFI [27]: 33900 MFI
MFI [28]: 180 MFI
MFI [29]: 8680 MFI
MFI [30]: 207 MFI
Emax of OD450 nm binding value [31]: 0.08 OD450 nm
Kd [32]: 0.0946 nM
koff [32]: 0.000129 s⁻¹
kon [32]: 1.36e+06 M⁻¹ s⁻¹
MFI [33]: 108
MFI [34]: 555 MFI
MFI [35]: 15300 MFI
MFI [36]: 547
B1: Hab014VL3VH1-hFc (scFv, part only; not given: VL-VH linker and human IgG1 Fc, V domains shown, not shown: another chain or arm of the molecule; a dimerising Fc or GST; small tags and cut ends)
VL: DIVMTQSPDSLAVSLGERATINCKASEDIYNRLAWYQQKPGQTPKLLISGATSLETGVPDRFSGSGSGKDFTLTISSLQAEDVAVYYCQQYWSLPWTFGGGTKVEIK
VH: EVQLVQSGAEVKKPGASVKVSCKASGYTFTDYYMNWVRQAPGQRLEWMGDINPNHGDTGYNQKFTGRVTITVDKSASTAYMELSSLRSEDTAVYYCARNFFYYGTTYGWYFDVWGQGTTVTVSS

MFI [1]: 8420 MFI
MFI [2]: 16400 MFI
MFI [3]: 355 MFI
MFI [4]: 272 MFI
MFI [5]: 661 MFI
MFI [6]: 25300 MFI
MFI [7]: 16100 MFI
MFI [8]: 374 MFI
MFI [9]: 624
MFI [10]: 204 MFI
Emax of OD450 nm binding value [11]: 0.25 OD450 nm
MFI [12]: 428
MFI [13]: 1670 MFI
MFI [14]: 217
MFI at 0.00128 nM [15]: 91 MFI
MFI at 0.0064 nM [15]: 99 MFI
MFI at 0.032 nM [15]: 120 MFI
MFI at 0.16 nM [15]: 207 MFI
MFI at 0.8 nM [15]: 407 MFI
MFI at 4 nM [15]: 610 MFI
MFI at 20 nM [15]: 796 MFI
MFI at 100 nM [15]: 1110 MFI
MFI [16]: 308 MFI
MFI [17]: 109 MFI
MFI [18]: 287 MFI
MFI [19]: 118 MFI
MFI [20]: 152 MFI
MFI [21]: 754
MFI [22]: 33000 MFI
MFI [23]: 2380 MFI
MFI [24]: 142
MFI [25]: 1110
MFI [26]: 322 MFI
MFI [27]: 33000 MFI
MFI [28]: 200 MFI
MFI [29]: 10100 MFI
MFI [30]: 231 MFI
Emax of OD450 nm binding value [31]: 0.17 OD450 nm
Kd [32]: 0.111 nM
koff [32]: 0.000135 s⁻¹
kon [32]: 1.21e+06 M⁻¹ s⁻¹
MFI [33]: 113
MFI [34]: 705 MFI
MFI [35]: 15400 MFI
MFI [36]: 554
B2: Hab014VL2VH1-hFc (scFv, part only; not given: scFv linker and human IgG1 Fc, V domains shown, not shown: another chain or arm of the molecule; a dimerising Fc or GST; small tags and cut ends)
VL: DIQMTQSPSSLSASVGDRVTITCKASEDIYNRLAWYQQKPGKVPKLLISGATSLETGVPSRFSGSGSGKDFTLTISSLQPEDVATYYCQQYWSLPWTFGGGTKVEIK
VH: EVQLVQSGAEVKKPGASVKVSCKASGYTFTDYYMNWVRQAPGQRLEWMGDINPNHGDTGYNQKFTGRVTITVDKSASTAYMELSSLRSEDTAVYYCARNFFYYGTTYGWYFDVWGQGTTVTVSS
